According to patent US20060030524A1, “Treatment of systemic lupus erythematosus by down-regulating the autoimmune response to autoantigens” (Yeda Research and Development Co. Ltd., priority 1998, published 2006):

Key:
[1] = test system: histones; test: ELISA of sera of Ab1-immunized mice for anti-histone antibodies; assay type: in vivo; conditions: mice immunized with Ab1, bled two weeks after second boost
Procedure: (§1) ELISA assays were conducted in 96-well Maxisorp plates (Nunc, Roskilde, Denmark), which were coated with 10 μg test antigen per ml in PBS. After washing and blocking with 1% BSA in PBS for one hour at 37° C., diluted test sera (0.1 ml per well) was added for one hour at 37° C., followed by one hour incubation with goat anti-mouse IgG Fc specific, or IgG-isotype specific secondary antibodies conjugated to alkaline phosphatase, diluted 1:5000 (Jackson, Philadelphia, Pa.). A substrate solution containing 0.6 mg/ml of p-nitrophenylphosphate (Sigma, Rehovot, Israel) in diethanolamine-H2O, pH 9.8, was added, and the plates were read at 405 nm.
(§2) For anti-DNA ELISA, a secondary antibody conjugated to horseradish peroxidase, and as substrate 1 mg/ml ABTS in 0.2 M citric acid, 0.2 M Na2HP04, and 3% H202 (all from Sigma) was used. The test antigens used were (Fab) 2 fragments of Ab2 anti-PAb-421, which were prepared as described (Harlow et al, 1988), recombinant p53, the p53 peptide epitope of PAb-421, histones or, after pre-coating with methylated BSA, calf thymus DNA (all from Sigma). All antibody titers are shown as the O. D. produced by the test sera at a dilution of 1:100. Dots represent individual sera, bars represent the median of each group.

[2] = biological target: T1, p53 peptide epitope of PAb-421 (364-383 of SEQ ID NO:1) (Mus musculus, UniProt P02340); test: ELISA of sera of Ab1-immunized mice for Ab3 to the p53 peptide epitope of PAb-421; assay type: in vivo
T1 construct: made in house; host or cells: chemical synthesis (Abimed AMS 422)
Procedure: (§3) E. coli BL21 (DE3) cells were transformed with the T7 expression vector containing mouse p53 DNA (Shohat-Foord et al, 1991). P53 was purified as described (Wolkowicz et al, 1995). All peptides, including the p53 peptide epitope of PAb-421 ([…]) (residues 364-383 of SEQ ID NO:1) were prepared using an automated synthesizer (Abimed AMS 422; Langenfeld, Germany) according to the manufacturer. Peptide purity was tested by analytical reverse phase HPLC and mass spectroscopic analysis.
ELISA assays were conducted in 96-well Maxisorp plates (Nunc, Roskilde, Denmark), which were coated with 10 μg test antigen per ml in PBS. […] A substrate solution containing 0.6 mg/ml of p-nitrophenylphosphate (Sigma, Rehovot, Israel) in diethanolamine-H2O, pH 9.8, was added, and the plates were read at 405 nm.
Because the two mouse strains differed in their Ab1 response to PAb-421, it was conceivable that they also might differ in their Ab3 response to this Ab1 antibody. The specificity of the Ab3 response was analyzed by probing test sera for antibodies to the C-terminal peptide epitope of p53 that is recognized by the inducing PAb-421 (amino acids 364-383 of SEQ ID NO:1).

[3] = biological target: T2, recombinant p53 (Mus musculus, UniProt P02340); test: ELISA of sera of Ab1-immunized mice for Ab3 anti-p53 antibodies; assay type: in vivo
T2 construct: made in house; host or cells: E. coli BL21 (DE3)
Procedure: as §3, §1
To test whether immunization to Ab1 could induce Ab3, immunized mice were assayed for antibodies to p53. […] However, Ab1 antibodies PAb-246 and PAb-421 induced a stronger Ab3 anti-p53 response in the BALB/c strain than they did in the C57BL/6 strain.

[4] = test system: p53-responsive element oligonucleotide; test: Band shift assay of sera of Ab1-immunized mice; assay type: in vivo; conditions: sera of BALB/c mice immunized to the Ab1
[5] = test system: single-stranded calf thymus DNA; test: Anti-DNA ELISA of sera of Ab1-immunized mice; assay type: in vivo; conditions: sera of BALB/c mice immunized with the Ab1
Procedure: as §2

[6] = test system: native, histone-free DNA of Crithidia luciliae; test: Crithidia luciliae assay of sera of Ab1-immunized mice; assay type: in vivo; conditions: sera of BALB/c mice immunized to the Ab1
Procedure: Slides with Crithidia were purchased from Immco (Buffalo, N.Y.) and incubated with the test sera according to the manufacturer's protocol.
Test sera were then examined for binding to DNA using the Crithidia luciliae assay, which detects antibodies—to native, histone-free DNA exposed at the base of the Crithidia flagellum. Both BALB/c and C57BL/6 mice immunized to […] or PAb-248 were negative for anti-DNA antibodies in the Crithidia assay, as were C57BL/6 mice immunized to PAb-421. […] The finding of positive reactivity in the Crithidia assay correlates with the clinical disease seen in the BALB/c mice. The Crithidia luciliae assay is used clinically for its diagnostic specificity for lupus in humans (Aarden et al, 1975).

[7] = test system: BALB/c and C57BL/6 mice; test: Induction of SLE-like disease by Ab1 immunization (proteinuria, histology, leukocyte counts); assay type: in vivo
Excerpt: Paraffin sections of tissue samples were either stained with hematoxylin and eosin, or immunostained with a peroxidase-labeled anti-mouse-IgG antibody (Jackson, Philadelphia, Pa.) and DAB (Sigma) according to the manufacturer's instructions.
Proteinuria was detected with Albustix strips (Bayer, Slough, UK). Leukocytes were counted from heparinized blood following 10-fold dilution in 1% acetic acid.

[8] = test system: Ab2 of immunized C57BL/6 mice cross-reactive to PAb-246 and PAb-421; test: Absorption of Ab2 cross-reactivity by preincubation with anti-p53 antibodies; assay type: binding; conditions: sera of immunized C57BL/6 mice preincubated with the antibody
Procedure: FIG. 2 is a graph showing cross-reactivity of C57BL/6 mouse Ab2 to PAb-246 and PAb-421. […] The mean percent inhibition (+SD) of the reactivity to PAb-246 or PAb-421 by preincubation is shown.
The Ab2 cross-reactivity of the C57BL/6 mice seemed to be limited to PAb-246 and PAb-421. To confirm the Ab2 cross-reactivity between PAb-246 and PAb-421, tests were conducted to determine whether preincubation with either of the anti-p53 antibodies could absorb out the cross-reactivity. […] The mean percent inhibition (+SD) of the reactivity to PAb-246 or PAb-421 by preincubation is shown.

[9] = test system: (Fab)2 fragments of the Ab1 anti-p53 antibodies; test: ELISA of sera of Ab1-immunized mice for Ab2 anti-idiotypic antibodies; assay type: in vivo
Procedure: as §1
as §2, with “Dots represent individual sera, bars represent the median of each group.” left out
To learn whether both strains of mice responded to the Ab1 immunization by making Ab2 anti-idiotypic antibodies, the reactivity of their sera to the (Fab)2 fragment of the Ab1 anti-p53 antibodies was determined.

T2 sequence (P02340 whole entry): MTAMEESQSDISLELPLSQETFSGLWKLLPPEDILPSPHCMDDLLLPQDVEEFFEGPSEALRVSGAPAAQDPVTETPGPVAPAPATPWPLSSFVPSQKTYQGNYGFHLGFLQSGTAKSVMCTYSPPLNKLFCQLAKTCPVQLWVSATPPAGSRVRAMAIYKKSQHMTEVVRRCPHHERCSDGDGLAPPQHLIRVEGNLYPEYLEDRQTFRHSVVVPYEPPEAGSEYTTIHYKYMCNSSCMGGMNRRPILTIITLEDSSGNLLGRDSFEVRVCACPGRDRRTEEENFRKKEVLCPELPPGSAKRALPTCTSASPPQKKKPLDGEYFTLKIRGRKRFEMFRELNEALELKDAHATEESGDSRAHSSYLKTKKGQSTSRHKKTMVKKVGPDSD
T1 sequence (P02340 364-383 limits assumed): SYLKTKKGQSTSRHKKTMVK

- induction of Ab3 anti-p53 antibodies (FIG. 4A) ([3]; BALB/c mice): make anti-p53 antibodies
- induction of Ab3 anti-p53 antibodies (FIG. 4A) ([3]; C57BL/6 mice): make anti-p53 antibodies
B1: PAb-421: monoclonal antibody (Ab1) against the C-terminal DNA-binding domain of murine p53; VH SEQ ID NO:2, VL SEQ ID NO:3 (antibody, listed as Mus sp., V domains shown)
VH: QVKLQESGAELVRSGASVKLSCTASGFNIKDYYMHWVKQRPEQGLEWIGWIDPENGDTEYAPKFQGKATMTADTSSNTAYLQLSSLASEDTAVYYCNFYGDALDYWGQGTTVTVSS
VL: DIQLTQSPLTLSVTIGQPASISCKSSQSLLDSDGKTYLNWLLQRPGQSPKRLIYLVSKLDSGVPDRFTGSGSGTDFTLKINRVEAEDLGVYYCWQGTHSPLTFGAGTKLK
modifications: BINDING (26)..(35) Complementary Determining Region; BINDING (24)..(39) Complementary Determining Region
- mice that developed significant titers of anti-histone antibodies [1]: About 30%
- Ab3 antibodies to the p53 peptide epitope of PAb-421 (FIG. 5) ([2]; BALB/c mice): made antibodies to the peptide epitope of PAb-421
- Ab3 antibodies to the p53 peptide epitope of PAb-421 (FIG. 5) ([2]; C57BL/6 mice): did not make antibodies to the C-terminal p53 peptide
- anti-DNA Ab2 to the p53-responsive element (band shift) [4]: did not make such anti-DNA antibodies
- anti-DNA reactivity to single stranded calf thymus DNA (FIG. 3) [5]: High anti-DNA reactivity
- anti-DNA antibodies in the Crithidia assay [6]: produced anti-DNA antibodies detectable by the Crithidia assay
- immunized mice that exhibited proteinuria ([7]; 80 BALB/c mice immunized with Ab1): about 95%
- development of lupus after Ab1 immunization ([7]; BALB/c mice): develop a lupus-like disease
- mice leukopenic (<4000 leukocytes per ml) and lymphopenic (<1200 lymphocyte per ml) ([7]; BALB/c mice immunized with Ab1): Seven out of ten
- development of lupus after Ab1 immunization ([7]; C57BL/6 mice): did not develop disease
- absorption of Ab2 cross-reactivity between PAb-246 and PAb-421 by preincubation (FIG. 2) [8]: absorbed out significantly
- Ab2 anti-idiotypic response, specificity (FIG. 1) ([9]; BALB/c mice): made antibodies specific to PAb-421
- Ab2 anti-idiotypic response, specificity (FIG. 1) ([9]; C57BL/6 mice): cross-reacted to both PAb-246 and PAb-421
